The sequences below were run on T1, His-NrtR (Pseudomonas aeruginosa PAK), ORF:d24b93ef (assay: EMSA). Conditions: 10 mM Tris, 1 mM DTT, pH 7.5, […].
T1 sequence: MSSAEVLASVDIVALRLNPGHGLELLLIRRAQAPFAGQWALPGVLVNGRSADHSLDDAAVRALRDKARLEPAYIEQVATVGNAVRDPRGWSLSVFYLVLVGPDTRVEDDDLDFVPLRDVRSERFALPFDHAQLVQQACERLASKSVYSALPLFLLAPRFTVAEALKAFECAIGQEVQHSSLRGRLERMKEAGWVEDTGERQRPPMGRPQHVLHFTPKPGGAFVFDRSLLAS

For “CAGGAGTGATATTAGCGATTCCCAGTGCTCCCGCAACCTGCCAGAAAACCCAGCGAAGCTTCTTCGGCAGCCATTTTAGAAAAATATATTCCTTTAATTTCAATAAGTTACTTAAATTCACCGAGCGTTTTTGGCAAACCTCCCGGGCATTTATCTACTTAGGCTCACACGCCGTGTAAGTTAATGCTTACAAGAGCAGACACAAAAAACCCGGCGAACGCCGGGTCTTCAGTGGGTCTAAGGTTTTCCG (double strand) [rsmZ promoter fragment]”, which binding is on record?
Its binding is “binds”.

“GCTGGGAAGGCTCGCGATGATGAGGGGACTGGCCACTGTAGCGGGCCCGGCGCAGATCATCTTGACGCACGGCAAGCTCCCGGCGGCTGGGTGTTGCCGTCGGTCCGGCGAGCGGAACTATTACAGCGTGTAAGCCAAGGCTTACAAACGGCGGTGGTTTTGGCTGCTTTCTCCCCCTCGCGGAGATGCGTAATCTTCAAACCGTCAGGACATTGCGCAGGAAGCGCCAAAGACAATACGG (double strand) [rsmY promoter fragment]” was tested. Which binding did it give?
The binding was “binds”.

How did the binding turn out when “AGAAAATACCTTCCACTGCGAAATTTTGTAGTACAAGTGCTTGACGACTTATTTCACGTGATGAATTATGTACCCACATTCAGCCCCAACCCGTCAAGCGGAGGCTTCC (double strand) [nadD2 promoter fragment]” was run?
The binding was “binds”.

“CCGCGTTGCCGACCGTGGCCACCTGCTCGATGTAGGCCGGCTCCAGCCGCGCCTTGTCGCGCAGGGCGCGCACCGCCGCGTCGTCGAGGCTGTGGTCGGCGCTGCGGCCGTTGACCAGCACGCCGGGCAAGGCCCACTGGCCGGCGAAAGGCGCCTGGGCGCGGCGGATCAGCAACA (double strand) [nrtR coding fragment]” was tested. Which binding did it give?
The binding was “no binding”.
